Results published in US20250051474A1, “ANTI-CD97 ANTIBODIES AND ANTIBODY-DRUG CONJUGATES” (New York University, priority 2023, published 2025).

Legend:
[1] = target: T1, CD97 GAIN mutant T524K expressed on ExpiCHO cells (human, UniProt P48960 21-835); experiment: cell-based binding assay: CD97 GAIN mutant T524K transiently expressed on ExpiCHO cells, A8 Fab titrated, flow cytometry MFI; lower panel
T1 construct: numbering of isoform 1; whole entry named
T1 sequence: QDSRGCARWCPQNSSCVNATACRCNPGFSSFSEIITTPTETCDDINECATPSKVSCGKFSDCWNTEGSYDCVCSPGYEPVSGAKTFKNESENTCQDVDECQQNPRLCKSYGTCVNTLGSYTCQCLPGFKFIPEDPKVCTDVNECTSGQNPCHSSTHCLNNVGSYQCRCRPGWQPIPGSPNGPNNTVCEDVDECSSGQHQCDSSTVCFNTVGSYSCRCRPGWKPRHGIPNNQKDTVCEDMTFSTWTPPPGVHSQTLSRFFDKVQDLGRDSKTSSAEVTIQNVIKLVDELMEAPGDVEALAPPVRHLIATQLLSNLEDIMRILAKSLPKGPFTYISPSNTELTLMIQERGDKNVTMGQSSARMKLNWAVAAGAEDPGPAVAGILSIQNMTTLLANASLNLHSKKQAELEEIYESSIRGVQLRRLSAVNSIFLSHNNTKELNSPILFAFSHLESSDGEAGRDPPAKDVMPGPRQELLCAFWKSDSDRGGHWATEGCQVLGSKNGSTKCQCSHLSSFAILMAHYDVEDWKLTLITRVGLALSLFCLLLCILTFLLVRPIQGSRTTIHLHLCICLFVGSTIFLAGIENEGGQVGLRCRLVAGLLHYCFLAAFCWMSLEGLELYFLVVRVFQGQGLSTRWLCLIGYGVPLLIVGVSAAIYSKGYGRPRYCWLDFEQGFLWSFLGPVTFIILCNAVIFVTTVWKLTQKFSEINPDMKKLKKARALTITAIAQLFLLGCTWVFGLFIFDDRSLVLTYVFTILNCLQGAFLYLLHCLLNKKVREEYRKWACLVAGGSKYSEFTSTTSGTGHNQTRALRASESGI
Description: (§1) KD values were determined from the curve fitting of a 1:1 binding model.

[2] = target: T2, CD97 GAIN mutant T351K expressed on ExpiCHO cells (human, UniProt P48960 21-835); experiment: cell-based binding assay: CD97 GAIN mutant T351K transiently expressed on ExpiCHO cells, A8 Fab titrated, flow cytometry MFI; lower panel
T2 construct: numbering of isoform 1; whole entry named
T2 sequence: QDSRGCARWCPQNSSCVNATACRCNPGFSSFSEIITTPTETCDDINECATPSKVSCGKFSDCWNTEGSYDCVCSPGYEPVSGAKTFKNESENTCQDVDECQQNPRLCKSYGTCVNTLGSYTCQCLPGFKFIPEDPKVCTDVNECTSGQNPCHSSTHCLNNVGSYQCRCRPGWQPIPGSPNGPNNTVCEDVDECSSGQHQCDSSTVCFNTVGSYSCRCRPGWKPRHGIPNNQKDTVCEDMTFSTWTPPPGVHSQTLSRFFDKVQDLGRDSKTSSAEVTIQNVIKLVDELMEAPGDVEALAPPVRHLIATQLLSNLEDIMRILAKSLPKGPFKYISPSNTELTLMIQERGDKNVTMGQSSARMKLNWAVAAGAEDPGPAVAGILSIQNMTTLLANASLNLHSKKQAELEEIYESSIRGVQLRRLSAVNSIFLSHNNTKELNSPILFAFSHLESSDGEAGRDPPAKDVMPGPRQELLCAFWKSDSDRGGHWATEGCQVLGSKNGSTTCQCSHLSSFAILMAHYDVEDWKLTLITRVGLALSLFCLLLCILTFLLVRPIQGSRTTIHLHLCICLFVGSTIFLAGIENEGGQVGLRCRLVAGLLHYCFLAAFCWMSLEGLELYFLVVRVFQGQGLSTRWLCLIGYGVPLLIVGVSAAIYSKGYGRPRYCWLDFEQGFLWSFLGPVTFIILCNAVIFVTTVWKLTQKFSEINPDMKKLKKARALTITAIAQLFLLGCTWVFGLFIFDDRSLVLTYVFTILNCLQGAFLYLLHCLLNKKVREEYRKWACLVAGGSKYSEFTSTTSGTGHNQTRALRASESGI
Description: as §1

[3] = target: T3, CD97 (ADGRE5) isoform 1 ectodomain, purified and biotinylated (human, UniProt P48960 21-552, limits assumed, biotinylated in vitro using the BirA enzyme); experiment: bead-based binding assay: biotinylated CD97 isoform 1 on streptavidin beads, Fab titrated, flow cytometry MFI, 1:1 fit; EXPERIMENT 2
T3 construct: the whole entry for isoform 1 is named here; also called CD97 isoform 1; Biotinylated CD97 isoform 1
T3 sequence: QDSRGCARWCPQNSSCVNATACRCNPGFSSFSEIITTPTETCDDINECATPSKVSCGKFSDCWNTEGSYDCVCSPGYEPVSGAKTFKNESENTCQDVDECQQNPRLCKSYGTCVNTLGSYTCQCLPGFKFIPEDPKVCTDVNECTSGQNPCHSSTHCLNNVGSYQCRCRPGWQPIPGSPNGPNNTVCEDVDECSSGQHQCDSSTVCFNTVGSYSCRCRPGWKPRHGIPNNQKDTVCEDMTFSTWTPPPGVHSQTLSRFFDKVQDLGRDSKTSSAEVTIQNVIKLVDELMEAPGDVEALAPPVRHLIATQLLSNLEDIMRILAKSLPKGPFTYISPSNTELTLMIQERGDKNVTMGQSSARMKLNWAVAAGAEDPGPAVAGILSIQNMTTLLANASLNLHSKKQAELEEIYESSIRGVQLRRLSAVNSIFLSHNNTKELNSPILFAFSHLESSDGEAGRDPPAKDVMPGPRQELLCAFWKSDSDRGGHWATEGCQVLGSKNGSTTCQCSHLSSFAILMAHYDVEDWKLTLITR
Description: as §1

B1: Antibody clone A8, Fab format (Fab, V domains shown)
VH: EVQLVESGGGLVQPGGSLRLSCAASGFTISSYSIHWVRQAPGKGLEWVASISPYYGSTSYADSVKGRFTISADTSKNTAYLQMNSLRAEDTAVYYCARSWYYYEQNPYWYQKEEQALDYWGQGTLVTVSS
VL: DIQMTQSPSSLSASVGDRVTITCRASQSVSSAVAWYQQKPGKAPKLLIYSASSLYSGVPSRFSGSRSGTDFTLTISSLQPEDFATYYCQQSVYSPVTFGQGTKVEIKR
notes: Fab; also called wild type A8
B1 was tested, and the binding result [1] was “no binding (tested: 1000 nM)”, the binding result [2] was “no binding (tested: 1000 nM)” and the Kd [3] was 9.5 nM.
